Assay results from patent US20030198957.

human NOV8 (EDSP, Endothelial Dual Specificity Phosphatase domain-containing protein)
in vitro phosphorylation (dephosphorylation) assay (P38 MAP kinase): has little activity on P38 MAP kinase | in vitro phosphorylation (dephosphorylation) assay (JNK): can dephosphorylate ERK and JNK | in vitro phosphorylation (dephosphorylation) assay (ERK): can dephosphorylate ERK and JNK
